Results: patent US7193044B1, “Compounds and methods for regulating apoptosis, and methods of making and screening for compounds that regulate apoptosis” (Immunogen, Inc., priority 2000, dated 2007)

Experiments:
[1] = test system: HeLa cells; test: Beta-gal ELISA apoptosis assay in transfected HeLa cells; assay type: cell-based, human; settings: in the presence of Forskolin after 24 hours
Experimental: Because BAD Ser155 phosphorylation, like Ser136 phosphorylation, prevents BAD from binding to Bcl-XL (FIG. 1), it was possible that by analogy, Ser155 dephosphorylation promotes cell death. To test this idea, HeLa cells were co-transfected with BAD or various BAD serine mutants and a β-gal reporter plasmid. Twenty-four hours post-transfection, cell viability was analyzed by β-gal ELISA.
To test this idea, HeLa cells were again co-transfected with BAD or various BAD serine mutants and a β-gal reporter plasmid. Forskolin was then added to half of the cultures while the other half was left untreated. Beta-gal ELISAs were performed 24 hours post transfection. […] Thus, phosphorylation of Ser155 rescues cells from BAD-induced apoptosis, while substitution of Ser155 with a nonphosphorylatable residue results in increased cell death and the failure of cells to be protected from induced PKA activity.
Beta-gal ELISA assays were performed using the β-gal ELISA system from Boehringer Mannheim, according to manufacture's instructions. Cells were transfected with BAD (or BAD mutant) and β-gal in a ratio of 5:1. The transfected cells were trypsinized and distributed into 96-well tissue culture plates. Twenty-four hours after transfection, cell extracts were obtained by lysing the cells in lysis buffer. Cell extracts (200 μl) were then added to anti-β-gal-coated microtiter plates (MTP). The MTPs were foil-covered and incubated for one hour at 37° C. Solutions were then decanted and the MTPs were washed, followed by the addition of 200 μl of anti-β-gal-DIG working solution, and incubation for an additional hour as described above. Solutions were again decanted, the MTPs washed and 200 μl of DIG-POD working solution were added. The MTPs were incubated for another hour at 37° C., the solution decanted, and the wells washed. 200 μl of substrate with enhancer were added to each well and incubated at room temperature until color development. The β-gal activity was measured by the absorbance of the sample at […]. Data were based on triplicate wells with standard deviations calculated.

[2] = molecular target: GST-Bcl-XL (Homo sapiens, UniProt Q07817); test: GST-Bcl-XL binding (glutathione bead pull-down) of BAD; settings: 35S-labeled in vitro translated full-length protein incubated with PKA and ATP
GST-Bcl-XL, sequence (Q07817 whole entry): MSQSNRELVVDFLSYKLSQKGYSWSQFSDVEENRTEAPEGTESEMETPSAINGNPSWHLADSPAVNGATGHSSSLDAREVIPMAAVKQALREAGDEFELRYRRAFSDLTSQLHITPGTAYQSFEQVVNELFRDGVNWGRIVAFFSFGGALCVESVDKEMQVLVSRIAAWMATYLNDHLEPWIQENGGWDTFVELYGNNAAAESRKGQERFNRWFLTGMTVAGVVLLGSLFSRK
Experimental: In order to test whether the additional and novel phosphorylation site on BAD has functional significance, the effect on BAD binding to Bcl-XL was examined. Recombinant Bcl-XL tagged with the glutathione S-transferase (“GST”) moiety (“GST-Bcl-XL”) was incubated with WCL prepared from COS-7 cells expressing the double mutant HA-BAD S112A/S136A, and the HA-BAD S112A/S136A that bound to the GST-Bcl-XL was precipitated with GST beads. […] No HA-BAD S112A/S136A was precipitated with GST beads from the WCL that were not incubated with GST-Bcl-XL (FIG. 1, lane 4).
The ability of full-length BAD and mutant BAD S155A to bind Bcl-XL was also determined (FIG. 3(c)). Full-length BAD (“WT”) and mutant BAD S155A (“S155A”) were produced by in vitro translation and labeled with ^35S-methionine therein. […] Proteins bound to the beads (“Bound”) (lower panel) and samples of the reactions collected prior to incubation with the beads (“Total”) (upper panel) were analyzed by SDS-PAGE followed by autoradiography.
For Bcl-XL binding studies, GST-Bcl-XL (1 mg/ml final concentration) was added to cell lysates derived from BAD expressing cells, and incubated with rotation for two hours at 4° C. […] The beads were then washed with RIPA buffer, the proteins were separated by SDS-PAGE and associated BAD detected by probing the blot with anti-HA antibody.

[3] = molecular target: T1, PKA (catalytic subunit from bovine heart) (Bos taurus, UniProt P00517); test: In vitro kinase assay, phosphorylation of BAD and BAD mutants by PKA; assay type: biochemical; settings: 35S-labeled in vitro translated protein
T1 construct: 11 units PKA (catalytic subunit from bovine heart, Calbiochem); purchased Calbiochem; host or cells: bovine heart
Experimental: The ability of full-length BAD and mutant BAD S155A to bind Bcl-XL was also determined (FIG. 3(c)). Full-length BAD (“WT”) and mutant BAD S155A (“S155A”) were produced by in vitro translation and labeled with ^35S-methionine therein. The labeled proteins were then incubated with PKA (“+”) in the presence of unlabeled ATP or a buffer control (“−”). Following the kinase reactions, aliquots of each sample of the four samples were incubated with either GST or GST-Bcl-XL. The protein complex were captured on glutathione-agarose beads. Proteins bound to the beads (“Bound”) (lower panel) and samples of the reactions collected prior to incubation with the beads (“Total”) (upper panel) were analyzed by SDS-PAGE followed by autoradiography.
The GST-tagged BAD and BAD mutants were then expressed individually in cells and the purified GST-tagged polypeptides incubated with purified PKA, in the presence of ^32P radiolabel. A western blot, probed with anti-BAD antibody, was performed on the incubated GST-tagged BAD and BAD mutants to determine whether PKA could phosphorylate the BAD and/or mutant BAD in vitro. The GST-tagged BAD and BAD mutants phosphorylated by PKA could be detected directly by autoradiography due to the incorporation of ^32P radiolabel when the polypeptides were phosphorylated (FIG. 4, upper panel), whereas the total amount of BAD and mutant BAD present in the in vitro reaction was detected by the anti-BAD antibody probe (FIG. 4, lower panel).
In vitro kinase assays were carried out in 30 μl volumes containing 10 mM HEPES buffer, pH 7.5, 100 mM NaCl, 12 mM MgCl2, 1 mM dithiothreitol, […] γ^32P-ATP ([…], NEN), 11 units PKA (catalytic subunit from bovine heart, Calbiochem), and 1 μg purified GST-BAD. Reactions were incubated for 30 min at 30° C. and terminated by the addition of SDS-PAGE sample buffer. Samples were run on a 4–20% SDS-PAGE gel (Novex), transferred to a nitrocellulose membrane and phosphorylated GST-BAD was visualized by autoradiography. To verify that equal amounts of GST-BAD substrates were used, the nitrocellulose was subjected to western blot analysis with 133 ng/ml anti-BAD antibody (C-20).

[4] = test system: BAD Ser155 phosphorylation in HeLa cells; test: BAD phosphorylation in HeLa cells (western blot band-shift / anti-phospho-Ser155 antibody); assay type: cell-based, human; settings: HeLa cells
Experimental: A mammalian expression vector encoding mutant HA-BAD S155A, derived from the shorter murine BAD of SEQ ID NO:3, was constructed. HA-BAD S155A has an amino acid sequence wherein the serine at a position corresponding to Ser155 is substituted with alanine. A western blot was performed on WCL prepared from cells expressing the shorter murine BAD (SEQ ID NO:3), HA-BAD S112A, HA-BAD S136A, or HA-BAD S155A, and probed with anti-HA antibody.
A western blot analysis, probed with anti-HA antibody, was performed on lysates produced from the Forskolin treated and untreated (control) cells to determine whether Forskolin could induce the phosphorylation BAD or mutant BAD.
HeLa cells transiently expressing HA-BAD, HA-BAD S155A, HA-BAD S112A/S136A, or HA-BAD S112A/S136A/S155A were treated with Forskolin or a buffer control.
The HA-BAD S112A/S136A double mutant was transiently expressed in HeLa cells, and transfected cell cultures were treated with each of the GPCR ligands, individually and as a group. A western blot analysis, probed with anti-HA antibody, was performed on lysates produced from the treated and untreated (negative control) cells. […] Forskolin (FK) and no treatment (−) were positive and negative controls, respectively (FIG. 6(a), […], respectively).
Non-transfected HeLa cells were treated with Forskolin or L-epinephrine, followed by western blot analysis of cell lysates using anti-BAD antibodies.
Transformants were treated with L-epinephrine, then lysed and subjected to anti-HA western blot analysis.
To further test whether phosphorylation of Ser155 is dependent on the PI 3-kinase/Akt pathway, HeLa cells were transfected with the mutant HA-BAD S155A and pretreated with Wortmannin, an inhibitor of PI 3-kinase. These cells were then stimulated with epidermal growth factor (EGF), lysed and analyzed by western blot analysis.
For immunoprecipitation of all HA-BAD species, 1 μg of the anti-HA antibody was added to the cell lysates, and incubated at 4° C. for one hour. Protein G agarose (Pierce) was then added (50 μl/fraction of 50% slurry) and followed by a one hour incubation at 4° C. Beads were washed with RIPA buffer, boiled in loading buffer (2% SDS, 10% glycerol, 5% β-ME, 60 mM Tris, pH 6.8, 0.002% Bromophenol Blue) and loaded onto polyacrylamide gels. After electrophoresis, proteins were transferred to nitrocellulose membranes, and blots blocked in western wash buffer (40 mM Tris, pH 8.0, 150 mM NaCl, 0.2% NP-40) with 5% BSA for one hour at room temperature. Blots were incubated with primary antibody diluted in western wash buffer with 3% BSA at room temperature for 1–2 hours, washed with western wash buffer and incubated with secondary HRP-coupled antibody diluted in western wash buffer with 1.5% BSA, and washed extensively. Polypeptides were detected with the ECL chemiluminescence according to the manufacturers instructions (Amersham).

B1: wild-type BAD: shorter murine BAD of SEQ ID NO:3 (162 aa), used untagged, HA-tagged or GST-tagged (protein, listed as Mus musculus)
chain: MFQIPEFEPSEQEDASATDRGLGPSLTEDQPGPYLAPGLLGSNIHQQGRAATNSHHGGAGAMETRSRHSSYPAGTEEDEGMEEELSPFRGRSRSAPPNLWAAQRYGRELRRMSDEFEGSFKGLPRPKSAGTATQMRQSAGWTRIIQSWWDRNLGKGGSTPSQ
modifications: optional HA or GST tag
more cells surviving transient expression than with the BAD S155A mutant [1]: Approximately 50% | binding to GST-Bcl-XL after phosphorylation by PKA [2]: blocked the ability of BAD to bind to Bcl-XL | gel-mobility shift induced by phosphorylation by PKA [3]: induced a gel-mobility shift | band-shift (phosphorylation) of expressed BAD construct in response to L-epinephrine [4]: significant band-shift
